Data: patent US7700101B2, “Reagents and method for modulating Dkk-mediated interactions” (Wyeth, priority 2001, dated 2010)
Entries after “also recorded” stand apart in the source; their conditions may differ.

What was measured:
[1] = tested on: Wnt pathway (TCF-luciferase reporter); experiment: TCF-luciferase assay of LRP5 variants in U2OS cells; format: cell-based, human; conditions: for susceptibility to modulation by Dkk / activation of TCF-luciferase reporter construct: U2OS cells; for susceptibility to modulation by Dkk: in the presence of Dkk1 and Wnt1; for activation of TCF-luciferase reporter construct: in the presence of Wnt
Description: Site-directed mutants of LRP5 were generated in the full-length human LRP5 cDNA using the QuikChange XL-Site-Directed Mutagenesis Kit (catalog #200516, Stratagene, La Jolla, Calif.) following the manufacturers protocol. The mutant sequences were introduced using complementary synthetic oligonucleotides:
All constructs were sequence verified to ensure that only the engineered modification was present in the gene. Once verified, each variant was functionally evaluated in the TCF-luciferase assay in U2OS cells (essentially as described in Example 7. Other functional evaluations could also be performed, such as the Xenopus embryo assay (essentially as described in Example 6), or other assays to evaluate Wnt signaling, Dkk modulation, or anabolic bone effect. Binding of these mutants to Dkk, LRP-interacting proteins, Dkk-interacting proteins, or peptide aptamers to any of the preceding could also be investigated in a variety of ways such as in a two-hybrid system (such as in yeast as described in this application), or other methods.
U2OS human osteosarcoma cells were also utilized. U2OS cells (ATCC) were seeded into 96-well plates at 30,000 cells per well in 200 ul of the growth media (McCoy's 5A) containing 10% (v/v) heat-inactivated FBS, 1X penicillin streptomycin, and 1×Glutamax-1, and incubated overnight at 37° C. The following day, the media was replaced with OptiMEM (Invitroge) and cells were transfected using […] (as described by the manufacturer, Invitrogen) with. 0.005 μg/well of LRP5, HBM, LRP6 or contoI plasmid DNA (empty vector pcDNA3.1) and either Wnt1 (0.0025 ug/well) or Wnt3a (0.0025 ug/well) plasmid DNA. In addition, the 16x-(AS) TCF-TK-firefly-luciferase (Ramesh Bhat, WHRI, Wyeth) and control TK-renilla luciferase (Promega Corp.) were co-transfected at 0.3 ug/well and 0.06 ug/well respectively in all experiments. […] In other experiments, cells were co-transfected with 0.005 μg/well of LRP5, 0.0025 ug/well of Wnt1 or Wnt3 a (using […] of a control pcDNA3.1) with LRP5-interacting aptamers (0.05 ug/well). Cells were cultured for an additional 18-20 hours at 37° C. Culture medium was removed. Cells were then lysed with 100 μl/well of 1X Passive Lysis Buffer (PLB) of Dual Luciferase Reagent kit (DLR-kit-Promega Corp.) 20 μl of the lysates were combined with LARII reagent of DLR-kit and assayed for TCF-firefly luciferase signal in Top Count (Packard) instrument. After measuring the Firefly readings, 100 μl of the “Stop and Glo” reagent of DLR kit that contains a quencher and a substrate for renilla luciferase was added into each well. Immediately the renilla luciferase reading was measured using the Top Count (Packard) Instrument. The ratios of the TCF-firefly luciferase to control renilla readings were calculated for each well and the mean ratio of triplicate or more wells was expressed in all data.

endogenous LRP5/6 = experiment: Cell-based TCF reporter high-throughput assay, endogenous LRP5/6; parameters: species or system human; conditions: U2OS cells
Description: To develop a high throughput assay, the TCF-luciferase assay described in Example 7 was modified utilizing low level expression of endogenous LRP5/6 in U2OS and HEK293 cells. […] Using U2OS (human osteosarcoma) and HEK293 (ATCC) cells, the TCF-luciferase and tk-Renilla reporter element constructs were co-transfected along with Wnt3a/1 and Dkk.

LRP5 LBD = experiment: Yeast-2 hybrid interaction trap LRP5 LBD-LexA / Gal4AD-Dkk; format: binding; conditions: FIG. 18
Description: Small molecule inhibitors (or partial inhibitors) of the Dkk-LRP interaction may be an excellent osteogenic therapeutic. One way to investigate this important protein-protein interaction is using Y2H techniques substantially as described above and as is well known in the art. […] This interaction is quantitated using a reporter element known in the art, e.g., LacZ or luciferase, which is only activated when bait and prey interact. The Y2H assay is used to screen for compounds which modulate the LRP-Dkk interaction. Such a modulation would be visualized by a reduction in reporter element activation signifying a weaker or disrupted interaction, or by an enhancement of the reporter element activation signifying a stronger interaction. Thus, the Y2H assay can be used as a high-throughput screening technique to identify compounds which disrupt or enhance Dkk interaction with LRP5/LRP6/HBM, which may serve as potential therapeutics.
For example, the Interaction Trap methodology can be used as follows. […] With the LRP5LBD-LexA bait and the Gal4AD-Dkk prey, over a 20-fold activation of a lacZ reporter (under the control of a single LexA operator) was detected over the background. […] As a result, small molecules may be identified that modulate this interaction between LRP and Dkk.

LRP6 [2] = molecular target: T1, LRP6 (Homo sapiens, UniProt O75581); conditions: cited from earlier work
Target sequence in this assay (O75581 20-1613, species assumed): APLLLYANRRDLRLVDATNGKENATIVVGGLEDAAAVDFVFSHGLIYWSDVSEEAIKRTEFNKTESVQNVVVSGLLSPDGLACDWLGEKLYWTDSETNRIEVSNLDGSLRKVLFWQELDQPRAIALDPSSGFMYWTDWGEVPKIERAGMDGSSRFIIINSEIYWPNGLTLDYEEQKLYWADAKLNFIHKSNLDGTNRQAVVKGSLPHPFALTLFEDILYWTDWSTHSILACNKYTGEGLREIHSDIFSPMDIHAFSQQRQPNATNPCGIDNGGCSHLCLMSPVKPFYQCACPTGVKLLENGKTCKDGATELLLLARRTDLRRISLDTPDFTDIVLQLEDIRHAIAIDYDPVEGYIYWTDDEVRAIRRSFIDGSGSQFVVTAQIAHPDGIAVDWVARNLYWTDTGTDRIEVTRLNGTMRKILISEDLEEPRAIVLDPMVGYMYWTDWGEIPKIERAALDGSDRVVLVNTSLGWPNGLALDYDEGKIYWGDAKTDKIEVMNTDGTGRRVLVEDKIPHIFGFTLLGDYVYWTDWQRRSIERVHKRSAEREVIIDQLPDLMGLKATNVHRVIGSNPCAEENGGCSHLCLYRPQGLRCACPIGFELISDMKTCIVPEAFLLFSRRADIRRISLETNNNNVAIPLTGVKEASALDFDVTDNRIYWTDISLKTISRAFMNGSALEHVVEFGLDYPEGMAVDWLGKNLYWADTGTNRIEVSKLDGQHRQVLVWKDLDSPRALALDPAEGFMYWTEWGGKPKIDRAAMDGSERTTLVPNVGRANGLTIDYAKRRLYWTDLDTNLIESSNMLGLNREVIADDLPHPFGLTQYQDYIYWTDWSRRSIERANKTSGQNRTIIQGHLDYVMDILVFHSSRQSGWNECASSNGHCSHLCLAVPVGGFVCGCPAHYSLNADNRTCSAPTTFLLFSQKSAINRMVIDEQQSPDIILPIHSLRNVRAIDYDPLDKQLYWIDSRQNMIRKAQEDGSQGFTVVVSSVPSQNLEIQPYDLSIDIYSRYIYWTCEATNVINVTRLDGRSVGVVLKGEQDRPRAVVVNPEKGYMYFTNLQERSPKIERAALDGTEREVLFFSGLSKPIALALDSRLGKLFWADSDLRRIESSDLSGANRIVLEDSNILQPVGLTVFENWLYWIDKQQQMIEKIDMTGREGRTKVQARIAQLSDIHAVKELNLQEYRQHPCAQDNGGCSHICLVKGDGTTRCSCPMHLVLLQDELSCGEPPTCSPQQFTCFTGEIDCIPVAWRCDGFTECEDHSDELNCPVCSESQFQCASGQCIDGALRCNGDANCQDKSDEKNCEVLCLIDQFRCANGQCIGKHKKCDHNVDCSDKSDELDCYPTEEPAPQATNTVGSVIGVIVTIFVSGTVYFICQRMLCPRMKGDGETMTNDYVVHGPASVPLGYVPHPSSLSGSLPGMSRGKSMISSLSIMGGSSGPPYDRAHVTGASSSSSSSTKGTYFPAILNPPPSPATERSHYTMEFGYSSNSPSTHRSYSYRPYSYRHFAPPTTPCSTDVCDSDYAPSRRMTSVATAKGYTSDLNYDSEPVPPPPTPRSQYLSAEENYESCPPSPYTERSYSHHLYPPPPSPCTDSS

canonical Wnt signaling = conditions: Semenov et al.; cited from earlier work
LRP5 = molecular target: T2, LRP5 (Homo sapiens, UniProt O75197); experiment: TCF-luciferase assay in HOB-03-CE6 cells, LRP5; format: cell-based; conditions: Wnt3a, FIG. 15
T2 construct: Site-directed mutants of LRP5 were generated in the full-length human LRP5 cDNA; expressed in transfected cells; host or cells: HOB-03-CE6 osteoblastic cells; U2OS osteosarcoma cells; HEK293
Procedure: (§1) HOB-03-CE6 osteoblastic cells developed by Wyeth Ayerst (Philadelphia, Pa.) were seeded into 24-well plates at 150,000 cells per well in 1 ml of the growth media (D-MEM/F12 phenol red-free) containing 10% (v/v) heat-inactivated FBS, 1×penicillin streptomycin, and 1X Glutamax-1, and incubated overnight at 34° C. The following day, the cells were transfected using Lipofectamine 2000® (as described by the manufacturer, Invitrogen) in OptiMEM (Invitrogen) with 0.35 μg/well of LRP5, HBM, or control plasmid DNA (empty vector pcDNA3.1) and either Wnt1 or Wnt3 a plasmid DNA. Similar experiments were performed with LRP6 plasmid DNA (0.35 μg/well) or a control pEDdpc4 empty vector. […] All wells were transfected with 0.025 μg/well of CMV beta-galactosidase plasmid DNA and 0.35 μg/well 16X TCF(ASyluciferase reporter DNA (developed by Ramesh Bhat, Wyeth-Ayerst (Philadelphia, Pa.)). After 4 hours of incubation, the cells were rinsed and 1 ml of fresh growth media was added to each well. The cells were cultured overnight at 34° C., followed by a wash and a change of media. Cells were cultured for an additional 18-24 hours at 37° C. Cells were then lysed with 50 μl/well of 1X lysis buffer. The extracts were assayed for beta-galactosidase activity (Galacto Reaction Buffer Diluent & Light Emission Accelerator, Tropix) using 5 μl extract+50 μl beta-galactosidase diluent and luciferase activity (Luciferase Assay Reagent, Promega) using 20 μl extract.

HBM = molecular target: T3, HBM (Homo sapiens, UniProt O75197, G171V); experiment: TCF-luciferase assay in HOB-03-CE6 cells, HBM; format: cell-based; conditions: Wnt3a, FIG. 15
T3 construct: Full length Zmax/LRP5 and HBM ORF cDNA; expressed in transfected cells; host or cells: HOB-03-CE6 osteoblastic cells; U2OS osteosarcoma cells; HEK293
Procedure: as §1, with “DNA.” for “DNA. Similar experiments were performed with LRP6 plasmid DNA (0.35 μg/well) or a control pEDdpc4 empty vector.”

LRP6 [3] = molecular target: T1, LRP6; experiment: TCF-luciferase assay in HOB-03-CE6 cells, LRP6; format: cell-based; parameters: Full length LRP6 was isolated from the pED6dpc4 vector; expressed in transfected cells; host or cells: HOB-03-CE6 osteoblastic cells; U2OS osteosarcoma cells; HEK293
Target sequence in this assay (O75581 20-1613): as the sequence (O75581 20-1613, species assumed) above

Sequence of LRP5 LBD (as listed by the source): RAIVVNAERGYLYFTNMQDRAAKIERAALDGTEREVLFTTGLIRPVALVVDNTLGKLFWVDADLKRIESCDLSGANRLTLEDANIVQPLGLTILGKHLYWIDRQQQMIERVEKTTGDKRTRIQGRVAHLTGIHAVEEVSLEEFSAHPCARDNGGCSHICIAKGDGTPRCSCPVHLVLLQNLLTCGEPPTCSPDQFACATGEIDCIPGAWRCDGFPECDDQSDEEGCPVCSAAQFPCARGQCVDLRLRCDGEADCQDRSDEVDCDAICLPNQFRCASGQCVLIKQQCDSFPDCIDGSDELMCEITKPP
T2 sequence (O75197 32-1615): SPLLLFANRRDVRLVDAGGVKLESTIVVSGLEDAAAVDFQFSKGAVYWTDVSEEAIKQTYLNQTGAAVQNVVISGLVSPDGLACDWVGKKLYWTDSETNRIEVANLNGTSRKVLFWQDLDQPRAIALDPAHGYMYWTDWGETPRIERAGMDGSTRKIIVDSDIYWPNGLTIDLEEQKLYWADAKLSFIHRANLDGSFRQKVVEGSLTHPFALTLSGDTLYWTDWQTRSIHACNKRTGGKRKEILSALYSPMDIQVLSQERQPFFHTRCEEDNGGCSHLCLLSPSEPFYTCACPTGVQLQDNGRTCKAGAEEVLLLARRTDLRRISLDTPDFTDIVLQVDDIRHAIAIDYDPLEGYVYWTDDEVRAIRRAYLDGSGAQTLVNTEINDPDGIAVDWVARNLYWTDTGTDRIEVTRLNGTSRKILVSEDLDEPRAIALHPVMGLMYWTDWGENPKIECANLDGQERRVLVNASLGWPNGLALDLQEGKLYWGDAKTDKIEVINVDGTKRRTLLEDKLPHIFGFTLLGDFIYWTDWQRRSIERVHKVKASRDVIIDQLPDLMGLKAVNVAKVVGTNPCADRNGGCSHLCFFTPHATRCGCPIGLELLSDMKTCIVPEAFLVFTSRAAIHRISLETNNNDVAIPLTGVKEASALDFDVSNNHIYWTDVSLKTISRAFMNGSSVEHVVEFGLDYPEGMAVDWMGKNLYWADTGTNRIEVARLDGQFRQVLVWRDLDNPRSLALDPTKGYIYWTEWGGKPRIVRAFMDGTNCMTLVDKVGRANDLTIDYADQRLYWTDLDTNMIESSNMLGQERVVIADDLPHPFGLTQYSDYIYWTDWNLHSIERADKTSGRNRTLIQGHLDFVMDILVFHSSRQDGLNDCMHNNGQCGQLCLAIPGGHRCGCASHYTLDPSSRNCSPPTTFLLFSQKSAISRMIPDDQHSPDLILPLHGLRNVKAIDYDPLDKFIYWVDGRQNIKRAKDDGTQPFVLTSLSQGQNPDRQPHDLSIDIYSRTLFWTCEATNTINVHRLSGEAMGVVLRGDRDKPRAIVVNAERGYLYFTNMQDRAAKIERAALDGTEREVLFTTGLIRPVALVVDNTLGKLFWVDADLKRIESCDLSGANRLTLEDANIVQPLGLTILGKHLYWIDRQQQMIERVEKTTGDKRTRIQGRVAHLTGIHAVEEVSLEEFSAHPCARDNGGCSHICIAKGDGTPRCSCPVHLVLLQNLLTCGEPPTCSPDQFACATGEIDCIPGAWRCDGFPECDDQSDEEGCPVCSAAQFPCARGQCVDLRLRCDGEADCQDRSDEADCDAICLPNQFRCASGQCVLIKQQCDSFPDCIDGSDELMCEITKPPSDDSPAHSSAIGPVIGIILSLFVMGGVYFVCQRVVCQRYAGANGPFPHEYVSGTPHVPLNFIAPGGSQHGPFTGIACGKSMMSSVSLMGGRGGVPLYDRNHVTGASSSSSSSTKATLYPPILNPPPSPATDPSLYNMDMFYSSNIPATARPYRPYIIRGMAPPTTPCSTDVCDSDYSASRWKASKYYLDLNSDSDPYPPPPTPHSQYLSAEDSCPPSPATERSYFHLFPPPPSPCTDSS
T3 sequence (O75197 32-1615 G171V): as the sequence (O75197 32-1615) above, with G140V counted along it

With “G171Q: site-directed variant of human LRP5, introduces the propeller 4 residue” the “HBM effect / HBM activity” value [1] was “demonstrated HBM activity”.

For “G171F: site-directed variant of human LRP5 in propeller 1, introduces a ringed side-chain”, the “HBM effect / HBM activity” value [1] was “results in an HBM effect; also recorded: demonstrated HBM activity”, the “susceptibility to modulation by Dkk” value [1] was “less susceptible than LRP5” and the “activation of TCF-luciferase reporter construct” value [1] was “greater activation of the Wnt pathway than LRP5; also recorded: able to activate the TCF-luciferase reporter construct”.

In the case of “A214V: site-directed variant of human LRP5, position equivalent to 171 in blade 5”, the “HBM effect / HBM activity” value [1] is reported as “demonstrated HBM activity”.

In the case of “M282V: site-directed variant of human LRP5, accessible interior position in blade 1”, the “HBM effect / HBM activity” value [1] is reported as “results in an HBM-effect; also recorded: demonstrated HBM activity”, the “susceptibility to modulation by Dkk” value [1] is reported as “less susceptible than LRP5” and the “activation of TCF-luciferase reporter construct” value [1] is reported as “activation of the Wnt pathway; also recorded: able to activate the TCF-luciferase reporter construct”.

With “G171K: site-directed variant of human LRP5, introduces a charged side-chain” the “HBM effect / HBM activity” value [1] was “demonstrated HBM activity”.

B1: Dkk-1-AP: Dkk-1 modified with alkaline phosphatase (protein)
chain: TLNSVLNSNAIKNLPPPLGGAAGHPGSAVSAAPGILYPGGNKYQTIDNYQPYPCAEDEECGTDEYCASPTRGGDAGVQICLACRKRRKRCMRHAMCCPGNYCKNGICVSSDQNHFRGEIEETITESFGNDHSTLDGYSRRTTLSSKMYHTKGQEGSVCLRSSDCASGLCCARHFWSKICKPVLKEGQVCTKHRRKGSHGLEIFQRCYCGEGLSCRIQKDHHQASNSSRLHTCQRH
modifications: left off: large carriers
notes: Dkk-1 modified with alkaline phosphatase
In the case of B1, the “modulation of TCF signal without Wnt DNA transfection” value (endogenous LRP5/6; no Wnt3a/Wnt1 transfection, FIG. 21) is reported as “can be modulated”.

B2: Dkk-1 mutant (C220A): Dkk-1 mutant where cysteine 220 was changed to alanine (protein)
chain: TLNSVLNSNAIKNLPPPLGGAAGHPGSAVSAAPGILYPGGNKYQTIDNYQPYPCAEDEECGTDEYCASPTRGGDAGVQICLACRKRRKRCMRHAMCCPGNYCKNGICVSSDQNHFRGEIEETITESFGNDHSTLDGYSRRTTLSSKMYHTKGQEGSVCLRSSDCASGLCCARHFWSKICKPVLKEGQVATKHRRKGSHGLEIFQRCYCGEGLSCRIQKDHHQASNSSRLHTCQRH
With B2 the “interaction with LRP5 in yeast” value (LRP5 LBD) was “interaction was reduced”, the “interaction with LRP5 in yeast” value (LRP5 LBD; listed as mutant Dkk-1 (C220A)) was “unable to bind to LRP5” and the “repression of Wnt3a-mediated TCF reporter signaling” value (endogenous LRP5/6; Wnt3a, FIG. 19) was “lack of TCF-reporter inhibition”. The LRP6 binding (LRP6 [2]; Semenov et al.) was “abolished LRP6 binding” and the “repression of Wnt signaling” value (canonical Wnt signaling) was “unable to repress Wnt signaling”.

B3: Dkk-2: human Dickkopf-2, Dkk family member, full length cDNA (protein, UniProt Q9UBU2 1-259, looked up)
chain: MAALMRSKDSSCCLLLLAAVLMVESSQIGSSRAKLNSIKSSLGGETPGQAANRSAGMYQGLAFGGSKKGKNLGQAYPCSSDKECEVGRYCHSPHQGSSACMVCRRKKKRCHRDGMCCPSTRCNNGICIPVTESILTPHIPALDGTRHRDRNHGHYSNHDLGWQNLGRPHTKMSHIKGHEGDPCLRSSDCIEGFCCARHFWTKICKPVLHQGEVCTKQRKKGSHGLEIFQRCDCAKGLSCKVWKDATYSSKARLHVCQKI
modifications: full-length
notes: human Dickkopf-2, Dkk family member, full length cDNA
For B3, the “LRP5/Wnt3a mediated TCF-luciferase activity” value (LRP5) is given as “able to antagonize the TCF-luciferase activity”, the “HBM/Wnt3a mediated TCF-luciferase activity” value (HBM) is given as “able to antagonize the TCF-luciferase activity” and the Kd (LRP6 [2]; Mao et al., classical biochemical ligand-receptor studies) is given as 0.73 nM. For the same molecule, the “LRP6/Wnt1 mediated TCF-luciferase activity” value (LRP6 [3]; Wnt1, FIG. 14) was “had no effect” and the “LRP6/Wnt3a mediated TCF-luciferase activity” value (LRP6 [3]; Wnt3a, FIG. 15) was “able to antagonize LRP6/Wnt3a mediated TCF-luciferase activity”.
